Test results from article PMC7641913.

Molecular target: T1, His-Fur (Vibrio cholerae C7258 (El Tor; Peru, 1991)) (UniProt P0C6C8)
T1 sequence: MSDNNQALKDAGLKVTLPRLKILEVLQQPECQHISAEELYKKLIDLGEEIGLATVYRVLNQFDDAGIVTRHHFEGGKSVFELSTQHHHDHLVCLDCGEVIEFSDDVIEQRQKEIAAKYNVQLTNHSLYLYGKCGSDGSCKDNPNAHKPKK
Assay: EMSA
Conditions: 10 mM Tris-HCl pH 7.5, 50 mM KCl, 1 mM MgCl2, 100 uM MnCl (so in the source), 0.5 mM DTT, 0.05 mg/ml BSA, 10 mg/ml salmon sperm DNA; room temperature, 20 min (EMSA …)

CACTTCTTCGCCTTCTTTGATTGCGCCAGTACGGCGAATATCCAAACGAACAGAAGCGTAGAATTTCAGTGCGTTACCGCCAGTGGTGGTTTCTGGGTTACCAAACATCACACCAATCTT (double strand) [recA fragment (negative control)]
binding: no binding
